Experimental data taken from patent publication US20250197490A1 (HBM ALPHA THERAPEUTICS, published 2025).
Positions count from the first letter of the chain named.

T1: biotinylated CRH (human and mouse, UniProt P01143 145-185 (rat entry), not fully specified; biotin; which end is not stated for the result (NT-biotin and CT-biotin forms were used))
T1 construct: also called biotin-CRH; CRH (NT biotin)
T1 peptide: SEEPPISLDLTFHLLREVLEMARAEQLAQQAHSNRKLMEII

T2: human UCN3 peptide, biotinylated (human, UniProt Q969E3 120-157, biotin at N- or C-terminus)
T2 construct: also called hUCN3 (NT Biotin); hUCN3 (CT Biotin)
T2 peptide (looked up): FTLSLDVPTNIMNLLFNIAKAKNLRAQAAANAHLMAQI

T3: human UCN1 peptide, biotinylated (human, UniProt P55089 83-122, biotin at N- or C-terminus)
T3 construct: also called hUCN1 (NT Biotin); hUCN1 (CT Biotin)
T3 peptide (looked up): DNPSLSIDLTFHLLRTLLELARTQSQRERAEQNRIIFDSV

T4: CRH (Central Region, CT Biotin) (C-terminal K-Biotin)
T4 construct: also called Central CRH
T4 peptide: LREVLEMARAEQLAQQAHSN

T5: human UCN2 peptide, biotinylated (human, UniProt Q96RP3 72-109, limits assumed, biotin at N- or C-terminus)
T5 construct: also called hUCN2 (NT Biotin); hUCN2 (CT Biotin)
T5 peptide (looked up): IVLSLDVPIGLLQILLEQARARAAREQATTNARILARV

T6: corticotropin-releasing hormone (CRH) peptide (human and mouse, UniProt P01143 145-185 (rat entry), not fully specified)
T6 peptide: T1 peptide

T7: N-Terminal CRH peptide (N-terminal region plus central region, CT biotin) (human and mouse, C-terminal K-Biotin)
T7 construct: also called N-Ter-CRH
T7 peptide: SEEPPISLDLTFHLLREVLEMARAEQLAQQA

T8: CRH (C-Terminal Region, NT Biotin) (N-terminal Biotin-K; C-terminal NH2)
T8 construct: central region plus C-terminal region of CRH; also called C-Terminal CRH; C-Ter-CRH
T8 peptide: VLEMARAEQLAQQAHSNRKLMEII

T9: CRH (Central Region, NT Biotin) (N-terminal Biotin-K; C-terminal NH2)
T9 construct: also called Central CRH
T9 peptide: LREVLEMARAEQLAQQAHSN

B1: PR301780 (antibody, human IgG1, kappa, V domains shown)
VH: QIQLVQSGPELKKPGETVKISCKASGYTFTNFGLNWVKQAPGKGLKWMGWINTYTGEPTYTDDFKGRFAFSLETSASTAYLQINNLKKEDTATYFCARGTYRDDGAWFAYWGQGTLVTVSA
VL: DVLMTQTPLSLPVSLGDQASISCRSSQIIVHSNGNTYLEWYLQKPGQSPKLLIYKVSNRFSGVPDRFSGSGSGTDFTLKISRVEAEDLGVYHCFQGSHVPWTFGGGTKLEIKR
B2: PR302309-11 (antibody, human IgG1, kappa, V domains shown)
VH: QIQLVQSGSELKKPGASVKVSCKASGYTFTNYGMNWVRQAPGQGLEWMGWINTYTGEPIYTDDFKGRFVFSLDTSVSTAYLQISSLKAEDTAVYYCSRSTMITTGGVFAYWGQGTLVTVSS
VL: DIVMTQTPLSSPVTLGQPASISCRSSQTIVHSDGNTYLEWLQQRPGQPPRLLIYKVSNRFSGVPDRFSGSGAGTDFTLKISRVEAEDVGVYYCFQGSHVPWTFGGGTKVEIKR
B3: PR302309-18 (antibody, human IgG1, kappa, V domains shown)
VH: QVQLVQSGAEVKKPGASVKVSCKASGYTFTNYGMNWVRQAPGQRLEWMGWINTYTGEPIYTDDFKGRVTITRDTSASTAYMELSSLRSEDTAVYYCARSTMITTGGVFAYWGQGTLVTVSS
VL: B2 VL with I2V, T7S, S11L, L41Y, P48S, A72S, V88L
B4: PR301790 (antibody, human IgG1, kappa, V domains shown)
VH: EMKLEESGGGLVQPGGSMKLSCVASGFTFSNYWMNWVRQSPEKGLEWVAEIRLKSNNYATHYAESVKGRFTISRDDSKSSVYLQMNNLRAEDTGIYYCTIGTLVYWGQGTLVTVSA
VL: DIVLTQSPASLAVSLGQRATISCRASQSVSTSSYNYMHWYQQKPGQPPKLLIKFASNLESGVPARFSGSGSGTDFTLNIHPVEEEDTATFYCQHSWEIPYTFGGGTKLEIKR
B5: PR301803 (antibody, human IgG1, kappa, V domains shown)
VH: B4 VH with M2V, S30N, V66L, I100V
VL: B4 VL with A12V, S33T
B6: PR302064 (antibody, human IgG1, kappa, V domains shown)
VH: EMQLVESGGGLVKPGGSLRLSCAASGFTFSNYWMNWVRQAPGKGLEWVAEIRLKSNNYATHYAESVKGRFTISRDDSKSTVYLQMNSLKTEDTAVYYCTVGTLVYWGQGTLVTVSS
VL: DIVLTQSPDSLAVSLGERATINCRASQSVSTSTYNYMHWFQQKPGQPPKLLIKFASNLESGVPDRFSGSGSGTDFTLTISSLQAEDTAVYYCQHSWEIPYTFGQGTKLEIKR
B7: PR302341-34 (antibody, human IgG1, kappa, V domains shown)
VH: QVQLVQSGAEVKKPGASVKVSCKASGYTFTDYFMKWVRQAPGQGLEWMGVINPNQGDIFYNQKFKGRVTMTVDKSISTAYMELSRLRSDDTAVYYCARGTDRALFAYWGQGTLVTVSS
VL: DVVMTQSPLSLPVTLGQPASISCRSGQSIVHSDANTYLEWYQQRPGQSPRLLIYKVSNRFSGVPDRFSGSGSGTDFTLKISRVEAEDLGVYYCFQGSHIPWTFGGGTKVEIKR
B8: PR302341-48 (antibody, human IgG1, kappa, V domains shown)
VH: B7 VH with I76T, R85S, D89E
VL: B7 VL with S7T, L11S, S48P, S72A
B9: PR302341-55 (antibody, human IgG1, kappa, V domains shown)
VH: B7 VH with G44R, Q55N, G56A, M70I, V72R, K74T, I76A, R85S, D89E
VL: B7 VL with A34G
B10: PR302341-60 (antibody, human IgG1, kappa, V domains shown)
VH: B7 VH with G44R, M70I, V72R, K74T, I76A, R85S, D89E
VL: B7 VL
B11: PR302341-28 (antibody, human IgG1, kappa, V domains shown)
VH: B7 VH
VL: B7 VL with A34G

Columns and labels:
biotinylated CRH [1] = target: T1, biotinylated CRH; assay: ELISA, CRH (NT biotin)
[2] = target: T2, human UCN3 peptide, biotinylated; assay: ELISA, hUCN3 (NT biotin) and (CT biotin)
Procedure: (§1) Streptavidin (Thermo, Cat: 21125) was diluted in PBS with a concentration of 2 μg/mL. 100 μL of diluted streptavidin was added per well to ELISA microplates, and the plates were incubated overnight at 4° C. Plates were blocked with ELISA blocking solution (containing 2% w/v BSA, 0.05% (v/v) Tween-20, pH 7.4 PBS buffer) at 37° C. for 1 hour, and then incubated with either 1 μg/mL hUCN1 (NT Biotin), hUCN1 (CT Biotin), hUCN2 (NT Biotin), hUCN2 (CT Biotin), hUCN3 (NT Biotin), or hUCN3 (CT Biotin) for 1 hour at 37° C. […] Plates were subsequently washed and incubated with HRP-conjugated goat anti-human IgG (H+L) antibody (Jackson, Cat: 109-035-088) at 37° C. for 1 hour. 100 μl of TMB Substrate (Biopanda, Cat: TMB-S-003) was added, and the plates were incubated at room temperature for 15 minutes. 100 μL of ELISA stopping solution (Solarbio, Cat #: C1058) was then added to terminate the reaction, and the OD450 nm was determined by an ELISA plate reader (Molecular Devices, Spectra max 384 plus).

[3] = target: T3, human UCN1 peptide, biotinylated; assay: ELISA, hUCN1 (CT biotin)
Procedure: (§2) Streptavidin (Thermo, Cat: 21125) was diluted in PBS to a concentration of 2 μg/ml. 100 μl of diluted streptavidin was added per well to ELISA microplates, and the plates were incubated overnight at 4° C. […] Subsequently, plates were washed and incubated with HRP-conjugated goat anti-human IgG (H+L) antibody (Jackson, Cat: 109-035-088) at 37° C. for 1 hour. 100 μL of 3,3′,5,5′-tetramethylbenzidine (TMB) substrate (Biopanda, Cat: TMB-S-003) was added, and the plates were incubated at room temperature for 15 minutes. 100 μL of ELISA stopping solution (Solarbio, Cat #: C1058) was added to terminate the reaction, and the optical density at 450 nm (OD450 nm) was determined by an ELISA plate reader (Molecular Devices, Spectra max 384 plus).

[4] = target: T4, CRH (Central Region, CT Biotin); assay: ELISA, CRH central region peptide (CT biotin)
Procedure: as §2

biotinylated CRH [5] = target: T1, biotinylated CRH; assay: ELISA, CRH (CT biotin)
Procedure: as §2

biotinylated CRH [6] = target: T1, biotinylated CRH; assay: ELISA, CRH (NT biotin)
Procedure: as §2

[7] = target: T5, human UCN2 peptide, biotinylated; assay: ELISA, hUCN2 (NT biotin) and (CT biotin)
Procedure: as §1

[8] = target: T3, human UCN1 peptide, biotinylated; assay: ELISA, hUCN1 (NT biotin)
Procedure: as §2

[9] = target: T6, corticotropin-releasing hormone (CRH) …; assay: cell-based or functional assay
[10] = target: T7, N-Terminal CRH peptide (N-terminal …); assay: ELISA, N-Ter-CRH (CT-biotin) on streptavidin
Procedure: as §2

[11] = target: T8, CRH (C-Terminal Region, NT Biotin); assay: ELISA, CRH C-terminal region peptide (NT biotin)
Procedure: as §2

[12] = target: T9, CRH (Central Region, NT Biotin); assay: ELISA, CRH central region peptide (NT biotin)
Procedure: as §2

[13] = target: T6, corticotropin-releasing hormone (CRH) …; assay: cell-based or functional assay
[14] = target: T3, human UCN1 peptide, biotinylated; assay: ELISA, hUCN1 (NT biotin) and (CT biotin), mAb at 100 and 10 nM
Procedure: as §1

Binder	binding result [4]	EC50 (read off the curve) (biotinylated CRH [5]) [nM]	EC50 (read off the curve) (biotinylated CRH [6]) [nM]	binding result [7]	EC50 (read off the curve) [8] [nM]	binding result [11]	binding result [12]	binding result [14]	also measured
B1	–	–	–	–	–	–	–	–	binding result (biotinylated CRH [1]): binds
B2	no binding (tested: 100 nM)	~0.03	~0.03	no binding (tested: 100 nM)	~0.07	no binding (tested: 100 nM)	no binding (tested: 100 nM)	–	binding result [2]: no binding (tested: 100 nM); EC50 (read off the curve) [3]: ~0.4 nM; hCRHR1-Luc 0.5 nM CRH IC50 [9]: 2.12 nM; EC50 [10]: 0.028 nM
B3	no binding (tested: 100 nM)	~0.03	~0.03	no binding (tested: 100 nM)	~0.1	no binding (tested: 100 nM)	no binding (tested: 100 nM)	–	binding result [2]: no binding (tested: 100 nM); hCRHR1-Luc 0.5 nM CRH IC50 [9]: 1.73 nM; EC50 [10]: 0.028 nM
B4	–	–	–	–	–	–	–	–	binding result (biotinylated CRH [1]): binds
B5	–	–	–	–	–	–	–	–	binding result (biotinylated CRH [1]): binds
B6	no binding (tested: 100 nM)	~0.03	~0.03	no binding (tested: 100 nM)	~0.1	no binding (tested: 100 nM)	no binding (tested: 100 nM)	–	binding result [2]: no binding (tested: 100 nM); EC50 (read off the curve) [3]: ~0.2 nM; unlabelled nM value (Table 5 matrix; likely hCRHR1-Luc IC50 as in Tables 6-8) [13]: 0.531 nM; EC50 [10]: 0.022 nM
B7	no binding (tested: 100 nM)	~0.03	~0.03	no binding (tested: 100 nM)	~0.02	no binding (tested: 100 nM)	no binding (tested: 100 nM)	–	EC50 (read off the curve) [3]: ~0.03 nM
B8	–	–	–	no binding (tested: 100 nM)	–	–	–	binds	–
B9	–	–	–	no binding (tested: 100 nM)	–	–	–	binds	–
B10	–	–	–	no binding (tested: 100 nM)	–	–	–	binds	–
B11	–	–	–	no binding (tested: 100 nM)	–	–	–	binds	–
